Measurements published in the nanobody polyreactivity screen of Harvey et al. (2022).

Assay: yeast display, Sf9 membrane polyspecificity reagent, FACS + sequencing; frameworks hold sequencing errors
In short: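 In a synthetic yeast display library (Saccharomyces cerevisiae BJ5465), nanobody expression was induced with galactose for 36–48 hours. FACS gates were set low and high (top ~1%) using anti-HA fluorescence for expression and streptavidin fluorescence for binding of the Sf9 membrane reagent. Each polyreactivity label is drawn from the gate of origin.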

| Sequence | polyreactivity (PSR sort gate) |
| --- | --- |
| QVQLVDSGGGLVQAGGSLRLICAASGLIFYKYAMGWYRQAPGKERELVASISTGGGSTYYADSVKGRFTISRDNAKNTVYLQMNSLQPEDTAVYYCAARWWRRFRGSHSLYDYWGQGTEVTVSS | high polyreactivity |
| QVQLVESGGGLVQAGGSLRLSCAASGRTFPYNAMGWYRQAPGKERELVASITYNGGSTYYADSVKGRFTISRDNAKNTVYLQMISLKPEDTAVYYCAKLFRTYYATYNYWGQGTQVTVSS | high polyreactivity |
| QVQLVESGGGLVQAGGSLRLSCAASGFIFANYVMGWYRQAPGKERELVAAITYSGNTYYADSVKGRFTISRDNAKNTVYLQMNSLKPVDTAVYYCNADYVEGGLPGYDFDYWGQGTQVTVSS | low polyreactivity |
| QVQLVESGGGLVQAGGSLRLSCAASGRIFGINAMGCYRQAPGKERELVAAINWSGGSTYYADSVKGRFTISRDNAKNTVYLQMNSLKPEDTEVYYCAAQKYKRVGYWGQVTQVTVSS | high polyreactivity |
| QVQLVESGGGLVQAGGSLRLSCAASGSILKSNAMGWYRQAPGKERELVAAITYRDGSTYYADSVKGRFTISRDNAKNTVYLQMNSLKAEDTAVYYCAAEPSWWNVFYPGYNYWGQGTQVTVSS | high polyreactivity |
| QVQLVESGGGLVQAGGSLRLSCAASGITFGDYAMGWYRQAPGKEMEMVAGINWSGDGTYYADSVKGRFTISRDNAKNTVYLQMNSLKPEDTAVYYCNARGIPLYSYRDYRFVVLNFDYWGQGTQVTVSS | low polyreactivity |
| QVQLVESGGGLVQAGGSLRLSCAASGRIFSRNTMGWYRQAPGKERELVATITSAGSTTYADSVKGRFTISRDNAKNTVYLQMNRLKPEDTAVYYCAARSWKRRVGRDYWGQGTQVTVSS | high polyreactivity |
| QVQLVESGGGLVQAGGSLRLSSAASGRIFQLYTMGWYRQAPGKEREMVAAITSGTSTSYADSVKGRFTISRDNAKNSVYLQMNSLKPEDTAVYYCNKGSVSYCSVFVPYESDYWGQGTQVTVSS | low polyreactivity |
| QVQLVESGGGLVQAGGSLRLSCAASGSTIRSYAMGWYRQAPGKERELVAVISSGDSTYYADSVKGRFTISRDNAKNTVYLQMNSLKPEDTAVYYCAADSYVLGRWYGYWGQGTQVTVSS | low polyreactivity |
| QVQLVESGGGLVQAGGSLRLSSAASGSIFRSNAMGWYRQAHGKERELVAAITSGTRTYYADSVKGRFTISRDNAKNTVYLQMNSLKPEDTAVFYCATKGSKYVRGYWGQGTQVTVSS | high polyreactivity |
| QVQLVESGGGLVQAGGSLRLSCAASGSTFAYNAMGWYRQAPGKERELVASISQSGVSTYYADSVKGRFTISRDNAKNTVYLQMNSLKPEDTAVYYCNTEIYYRSYEDDYWGQGSQVTVSS | low polyreactivity |
| QVQLVESGGGLVQAGGSLRLSCAASGRTFHGYALGWYRQAPGKERELVARINWSDGRTYYADSVKGRFTISRDNAKNTVYLQMNSLKPEDTAVYYCAADKTVSYAPAWYYYWGQGTQVTVSS | low polyreactivity |
| QVQLVESGGGLVQAGGSLRLSCAAYGRIFVFYDMGWYRQAPGKDRELVATISFRGGSTYYADSVKGRFTISRDNAKNTVYLQMNCLKPEDTAVYYCAKENKRGYSTSGYYYWGQGTQVTVSS | low polyreactivity |
| QVQLVESGGGLVQAGGSLRLSCADSGITFWKYAMGWYRQAPGKERELVAAISGRGGSTYYADSVKGRFTISRDNAKNTVYLQMNSLKPEDTAVYYCAKYPGISGYNYWGQGTQVTVSS | high polyreactivity |
| QVQLVESGGGLVQAGGSLRLSCAASGSIFSYYAMGWYRQAPGKERELVAGISISTGSTYYADSVKGRFTISRDNAKNTVYLQMNSLIPEDTAVYYCNASALDPLYAKDDYWGQGTQVTVSS | low polyreactivity |
| QVQLVESGGGLVQAGGSLRLSCAASGIIFSRYAMGWYRQAPGKERELDAAISSRGTSTYYADSVKGRFTISRDNAKNTVYLQMNSLKPEDTAVYYCNAVSRPVRHKSTYDYWGQVTQVTVSS | high polyreactivity |
| QVQLVESGGGLVQAGGSLRLSCAASGSIFDDYAMGWYRQAPGKEREFVATITTSGGNTYYADSVKGRFTISRDNAKNTVYLQMHSLKPEDTAVYYCAKDRVKSPYLVYDSWGQGTQVTVSS | low polyreactivity |
| QVQLVESGGGLVQAGGSLRLSCAASGIIFARYAMGWYRQAPGKERELVAVISGSGGSTYYADSVKGRFTISRDNAKNTVYLQMNSLKPEDTAVYYCNAEFESGHDLDWYDYWGQGTQVTVSS | low polyreactivity |
| QVQLEDSGGGLVQAGGTHSLSCAASGFTFARNTMGWYRQAPGKERELVAAISWRGGRTYYADSVTGRFTISRDNAKNTDYLQMNRLKPEDRAVYYCNGVILKLGDALYDYWGEGTQVTVSS | high polyreactivity |
| QVQLVESGGGLVQAGGSLRLSCAASGRTFNYYGMGWYRQAPGKERELVAAISRGGTTNYADSVKGRFTISRDNAKNTVYLQMNSLKPEDTAVYYCAKGRSHWHSYQYVRPNYDYWGQGTQVTVSS | low polyreactivity |
| QVQLVESGGGLVQAGGSLRLSCAASGFISTYYAMGWYRQAPGKERELVAAISWNGGSTYYADSVKGRFTISRDNAKNTVYLQMNSLKPEDTADYYCAAYLGKWRQFYSSDYDYWGQGTQVTVSS | low polyreactivity |
| QVQLVESGGGLVQAGGSLRLSCAASGRILAANAMGWYRQAPGKERELVAAISWSGGRTYYADSVKGRFTISRDNAKNTVYLQMNSLKPEDTAVYYCNKLALAGYDYWGQGTQVTVSS | high polyreactivity |

| Sequence | polyreactivity (PSR sort gate) |
| --- | --- |
| QVQLVESGGGLVQAGGSLRLSCAASGSIFIYNAMGWYRQAPGKERELVASITYRGGSTYYADSVKGRFTISRDKAKNTVYLQMNSLKPEDTAVYYCNAPQYFSYSWPYPREYDYWGQGTQVTVSS | high polyreactivity |
| QVQLVESGGGLVQAGGSLRLSCAASGSTFSIYAMGWYRQAPGKERELVAAISFSDDSTYYADSVKGRFTISRDNAKNTVYLQMNSLKPEDTAVYYCAAEGYWGQPFDYDGALEYWGQGTQVTVSS | high polyreactivity |
| QVQLVESGGGLVQAGGSLRITCAASGSNFTYNAMGRYREAPGKERELVAAIDWDGDTTYYADSVKGRFTISRDNAKNTVYLQMNSLKPEDTAVYYCAAEFYSLGKAIYEYWGQGTQVTLSS | high polyreactivity |
| QVQLVESGGGLVQAGGSLRLSCAASGRTFSPYAMGWYRQAPGKERELVAAITNGGSTHYADSVKGRFTISRDNAKNTVYLQMNSLKPEDTAVYYPYDYWGQGTQVTVSS | low polyreactivity |
| QVQLVESGGGLVQAGGSLRLSCAASGFIISVYAMGWYRPAPGKERELVARIDSGGSTYYADSVKGRFTISRDNAKNTVYLQMNSLKPEDTAVYYGATDEGTVGGQQLRPLMDYWGQGTQVTVSS | low polyreactivity |
| QVQLVESGGGLVQAGGSLRLSCAASGNTFYYYAMGWYRQAPGKERELVASITWRGGDTYYADSVKGRFTISRDNAKNTVYLQMNSQKPEDTAVFYFAKPRLGRYDSMSYLGDYAGYVYWGQGTQVTLSS | low polyreactivity |
| QVQLLESGGGLVQAGGSLRLSCMASGSILADRISWYRQAPRIEHELVATLYDGGITYYADSMKGRFTMSRDNAKNTVYLQMNSLRPEDTAVYYCGASFEGYRYHVYCGQGTQVTVSS | low polyreactivity |
| QVQLVESGGGLVQAGGSLRLSCAASGSIFRIYAMGWYRQAPGKERELVAAIDSSGGSTYYADSVKGRFTISRDNAKNTVYFQMNSLKPEDTAVYYCNATFGYPFVDYDDYWGQGTQVTVSS | low polyreactivity |
| QVQLVESGGGLVQAGGSHRLSCAASGFTFGYYVMGWYRQAPGKERELVAAISKRGSSTYYADCVKGRFTISRDNANTTVYLQMNSLKPVDTAVYYCAADGVYSHKDGHWGQGTQVTVSS | high polyreactivity |
| QVQLVESGGGLVQAGGSLRLSCAASGFIFSYYAMGLYRQAPGKERELVAAIDYSGGSTNYADSVKGRFTISRDIAKYTVYLQMNSLKPEDTAVYYCNAEYTWHRGYDYWGQGTQVTVSS | low polyreactivity |
| QVQLGESGGGLVLAGGSLRLSCAASGYIFRAYAMGWYRQAPGKERELVAAISSRGGSTYYADSVKGRFTSSRDYAKNTVYLQMNSLKPEDTEVYYCAAAYRQPYIGYGYWGQGTQVTVSS | high polyreactivity |
| QVQLVESGGGLVQAGGSLRLSCAASGFTFRFYAMGWYRQAPGKERELVAGISSSGGTTYYADSVKGRFTISRDNAKNTVYLQMNSLKPEDTAVYYCNRRFLPAEQYTKKYYYWGQGTQVTVSS | high polyreactivity |
| QVQLVESGGGLVQAGGSLRLSCAASGSTFFSYAMGWYRQAPGKDRELVAAISNSGGTTYYADSVKGRFTISRDNAKNTVYLQMNSLKPEDTAVYYSATRARYVGGYKYNYWGQGTQVTVSS | high polyreactivity |
| QVQLVESGGGIVQAGGSLRLSCAASGRTFNYYAMGWYRQAPGKEREWVAAISSSGGRTYYADSVKGRFTISRDNAKNTVYLQMNSLKPEDTAVYYCAATGGGYKHWFDYWGQGTQVTVSS | low polyreactivity |
| QVQLVESGGGLVQAGGSLRLSCAASGRIFGGNAMGWYRQAPGKERQLVAAISKRGGSTYYADSVKGRFTISRDNAKNTVYLQMNSLKPEDTAVYYCAATPYSDQGLDYGYWGQGTQVTVSS | high polyreactivity |
| QDQLVESGGGLVQAGGSLRLSCAASGRTFTVYAMGWYRPAPGKEREMVAAISRSGGRTYYADSVKGRFTISRDNAMNTVYLQRNSLKPEDTAVYYCAADVPYRTNDFDYWGQGTQVTVSS | high polyreactivity |
| QVQLVESGGGLVQAGGSLRLSCAASGSTFYGYAMGWYRQAPGKERELVAAIRRIGGTTYADSVKGRFTISRDNAKNTVYLQMNSLKPVDTAVYYCAAYGFSYRYRYYYWGQGTQVTVSS | high polyreactivity |
| QVQLVESGGGLVQAGGSLSLSCAASGSTFVYNAMGWYRKAPGKERELVAAISSGGSTNYADSVKGRFTISRDNAKNTVYFQMKSLKPEDNRSEYSRYVVYDYWGQGTQVTVSS | low polyreactivity |
| QVQLGESGGGLVQAGRSLRLSCAASGSTIGPDAMGWYRQAPGTERELVAAIRYSSVRTYYADSVKGRFTISRDNAKNSVYVQMNSLKPEDTAVYYCNAVFWSYTVWGRSDYWGQGTQVTVSS | low polyreactivity |
| QVQHVESGRGLVQAGGILRLSCAASGRIFRMNAMGWYRQATGKERELDAAITWIGGRTYYADSVKGRFTISRDNAKNTVYLQMNSLKPEDTAVYYCAAAYPLDFWFGFEYDYWGQGTQGTVSS | high polyreactivity |
| QVQLVESGGGLVQAGGSLRLSCAASAIIFYKNAMGWYRQAPGKERELVAAITRGGSTNYADSVKGRFTISRDNAKNTVYLQMNSLKPEDTAVYYCDKRWFYTRYPTYDYWGQGTQVTVSS | low polyreactivity |
